Measured values from US20220324998A1 (MUSC FOUNDATION FOR RESEARCH DEVELOPMENT, published 2022).

Experiments:
NRAS(G12D) = NRAS(G12D) (UniProt P01111 1-189, limits assumed); test: co-IP (FLAG IP, Western blot) from HEK cells (FIG. 6)
From the text: (§1) R15m clones were expressed as CFP-FLAG fusion proteins in HEK cells along with various HA-tagged mutants of HRAS. CFP and NS1 Monobody were used as controls. CFP-FLAG and CFP-FLAG-tagged Monobodies (Mb) were immunoprecipitated, fractionated on SDSPAGE, and probed for binding to HRAS mutants. Antibodies used in Western blots are shown to the right of each panel.
(§2) R15 or R18 Monobody was expressed as CFP-FLAG fusion proteins in HEK cells along with various HA-tagged mutants of HRAS or KRAS, immunoprecipitated, and probed for binding to RAS mutants (FIGS. 1B and 1C). Additionally, various R15-derivative (R15m #) Monobody clones were expressed as CFP-FLAG fusion proteins in HEK cells along with various HA-tagged mutants of HRAS, immunoprecipitated, and probed for binding to RAS mutants (FIG. 5). R15 and R18 clones bound predominantly to Q61L, D119N, and K16N mutants with little binding to wild type (WT) or G12V mutant. K16N purifies from bacteria in a nucleotide free state. […] R15m10 binds Q61L mutants of all three RAS isoforms in addition to binding to NRAS(G12D) mutant (FIG. 6). Further R15m10 binds common oncogenic RAS mutants (FIG. 7 and FIG. 8).

HRAS(Q61L) = molecular target: T1, HRAS(Q61L) (UniProt P01112 1-189, limits assumed); test: as above
T1 construct: HA-tagged, expressed in HEK cells; also called Q61L mutant; HA-tagged HRAS Q61L
From the text: as §1, §2

NRAS(Q61L) = molecular target: T2, NRAS(Q61L) (UniProt P01111 1-189, limits assumed); test: as above
T2 construct: HA-tagged, expressed in HEK cells
From the text: as §1, §2

HRAS(G12V) = molecular target: T3, HRAS(G12V) (UniProt P01112 1-189); test: FLAG IP of monobody from HEK cells co-transfected with HA-tagged RAS mutant (FIG. 11D)
T3 construct: also called G12V mutant
From the text: FIG. 11A depicts KRAS(Q61L) co-expression with NS1 and R15. FIG. 11B depicts KRAS(G12D) co-expression with NS1 and R15. FIG. 11C depicts KRAS(G13D) co-expression with NS1 and R15. FIG. 11D depicts HRAS(G12V) co-expression with NS1 and R15. FIGS. 11E and 11F depict total expression of proteins with NS1 and R15, respectively, in whole cell lysates (WCL). HEK cells were co-transfected with the indicated Mb and HA-tagged RAS mutant. Monobodies were subsequently immunoprecipitated with FLAG antibodies to purify the associated RAS mutant protein. IPs were washed extensively with buffer containing high Mg2+ and lacking nucleotide. RAS proteins were then eluted from the immune complex with buffer containing low concentrations of SDS and deoxycholate (DOC). Eluted RAS proteins were then recovered and diluted 10-fold with buffer lacking SDS and DOC. Purified RAS proteins were then normalized to equivalent levels and incubated with GST-RAF-RBD to determine the level of active GTP-loaded RAS. As indicated, NS1 purified RAS-GTP as the purified RAS proteins robustly bound GST-RAF RBD both in the absence and presence of added GTPγS. […] However, addition of GTPγS (+GTP) to the R15m10 purified RAS proteins reconstituted binding to the RAF-RBD.
HEK cells were co-transfected with the indicated Mb and HA-tagged RAS mutant. […]

Measured: binding result

B1: FLAG-tagged CFP-R15m10 Monobody (designed binder)
chain: VSSVPTKLEVVAATPTSLLISWDASSSSVSYYRITYGETGGNSPVQEFTVPGYYSTATISGLKPGVDYTITVYAVWQGVWRYVSPISINYRT
notes: also called apo-specific monobody R15m10; not shown: CFP; FLAG tag
binds: all assays above
